Four molecules from article doi:10.1101/2021.05.23.445325 (bioRxiv, 2021) can be followed below.

No end group written: not given here.

Assay [1] deals with T1, GST-NXF1:p15 complex (UniProt Q9UBU9 1-619; Q9UKK6 1-140).
T1 sequence (looked up) 1: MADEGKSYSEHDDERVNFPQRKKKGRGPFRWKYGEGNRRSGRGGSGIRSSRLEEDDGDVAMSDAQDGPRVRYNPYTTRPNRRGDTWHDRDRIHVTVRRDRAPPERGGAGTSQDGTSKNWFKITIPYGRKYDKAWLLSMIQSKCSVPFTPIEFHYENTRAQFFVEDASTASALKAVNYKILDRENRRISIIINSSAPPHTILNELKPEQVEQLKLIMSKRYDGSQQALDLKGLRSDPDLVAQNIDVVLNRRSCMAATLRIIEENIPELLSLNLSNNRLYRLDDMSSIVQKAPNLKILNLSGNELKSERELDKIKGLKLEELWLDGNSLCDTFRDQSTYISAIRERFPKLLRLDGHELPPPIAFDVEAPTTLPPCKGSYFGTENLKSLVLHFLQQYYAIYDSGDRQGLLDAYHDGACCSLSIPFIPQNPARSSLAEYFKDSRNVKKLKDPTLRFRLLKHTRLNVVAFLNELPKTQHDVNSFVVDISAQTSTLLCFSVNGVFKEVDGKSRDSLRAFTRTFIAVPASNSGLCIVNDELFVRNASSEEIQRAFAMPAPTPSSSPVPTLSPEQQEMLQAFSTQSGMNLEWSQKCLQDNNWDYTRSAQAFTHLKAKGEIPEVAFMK
T1 sequence (looked up) 2: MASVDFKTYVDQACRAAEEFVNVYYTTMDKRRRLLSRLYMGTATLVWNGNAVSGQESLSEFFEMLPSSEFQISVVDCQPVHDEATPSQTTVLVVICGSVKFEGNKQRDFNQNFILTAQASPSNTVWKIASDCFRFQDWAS
Put plainly: pull-down.

For assay [2], the target named is T2, 6His-NXF1 1-198 (UniProt Q9UBU9 1-198).
T2 sequence (looked up): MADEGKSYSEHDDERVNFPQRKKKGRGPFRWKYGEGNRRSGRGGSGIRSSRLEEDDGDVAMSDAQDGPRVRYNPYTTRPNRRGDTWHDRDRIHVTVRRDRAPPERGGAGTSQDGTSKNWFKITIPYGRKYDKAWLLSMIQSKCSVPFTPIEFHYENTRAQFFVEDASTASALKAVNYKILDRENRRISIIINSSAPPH
The assay can be described thus: ITC.

B1: SRSF1 (amino-acids 11-196), 6His-tagged (domain or fragment, UniProt Q07955 11-196, looked up)
chain: AGNNDCRIYVGNLPPDIRTKDIEDVFYKYGAIRDIDLKNRRGGPPFAFVEFEDPRDAEDAVYGRDGYDYDGYRLRVEFPRSGRGTGRGGGGGGGGGAPRGRYGPPSRRSENRVVVSGLPPSGSWQDLKDHMREAGDVCYADVYRDGTGVVEFVRKEDMTYAVRKLDNTKFRSHEGETAYIRVKVDG
Consider B1, for which, in assay [1], the binding result is reported as “binds”. In the case of PRSGRGTGRGGGGGGGGGAPRGRYGPPSRRSEYGRKKRRQRRR (peptide, UniProt Q07955 89-120, looked up) [SRSF1 WT-CPP (SRSF1 aa89-120, V5 tag, TAT protein transduction domain)], the “fold increase of affinity against the wild-type SRSF1 peptide” value in assay [2] stood at 5 fold. In the case of PASGAGTGRGGGGGGGGGAPRGRYGPPSAASE (peptide, UniProt Q07955 89-120, looked up, also: FAM label, position not given here) [SRSF1 aa 89-120 m4-mutant peptide], in assay [2], the “fold reduction of affinity against SRSF1 WT-CPP” value is approximately 10 fold. As for PRSGRGTGRGGGGGGGGGAPRGRYGPPSRRSE (peptide, UniProt Q07955 89-120, looked up, also: FAM label, position not given here) [SRSF1 aa 89-120 wild-type peptide], the binding result in assay [2] is listed as “binds”.
